For the data set, the target named is RNAP holoenzyme with [211Cys-TMR] sigma70 (RNAP beacon);gpT5.026 (Escherichia coli;Escherichia phage T5, UniProt P0A7Z4;P0A8V2;P0A8T7;P0A800;P00579;Q6QGR1 1-329;1-1342;1-1407;2-91;1-613;1-153, S211C|). The data set can be described thus: fluorescence RNAP beacon titration; 100 nM gpT5.026 preincubated 15 min; 40 mM Tris-HCl pH 8.0, 100 mM NaCl, 5% glycerol, 1 mM DTT, 10 mM MgCl2, 0.02% Tween 20, 25 C; 1 nM labeled RNAP holoenzyme. To be noted: protein: recombinant;recombinant; chain copies: 2;1;1;1;1;1.

Our source for the binding signal values is paper PMC7472727, “Novel Escherichia coli RNA Polymerase Binding Protein Encoded by Bacteriophage T5”.

B1: [-38/-12] upstream double-stranded probe (dsDNA)
DNA 1: TATTTGACATCAGGAAAATTTTTTGGT
DNA 2: ACCAAAAAATTTTCCTGATGTCAAATA
Take B1: the binding signal was ~3 fold higher affinity than without gpT5.026.
